# According to patent US20230303994:
Protein,Activity PPI cleavage (pre-pro-human insulin),Selectivity (pre-pro-human insulin),Purity Insulin Glargine (pre-pro-insulin glargine),Yield (pre-pro-insulin glargine),desArg (pre-pro-insulin glargine),desThr (pre-pro-insulin glargine)
trypsin variant SEQ ID NO: 53 (protein) IVGGYTCAANSIPYQVSLNSGSHRCGGSLINSQWVVSAAHCYKPRIQVRLGEHNIDVLEGNEQFINAAKIITHPNFNGNTLDNDIMLIKLSSPATLNSRVATVSLPRSCAAAGTECLISGWGNTKSSGSSYPSLLQCLKAPVLSDSSCKSSYPGQITGNMICVGFLEGGKDACQGDSGGPVVCNGQLQGIVSSGYGCAQKNKPGVYTKVCNYVNWIQQTIAAN,yes,>90%,81.3 area %,> 80%,< 0.5 area %,2.1 area %
trypsin variant SEQ ID NO: 82 (protein) IVGGYTCAANSIPYQVSLNSGSHRCGGSLINSQWVVSAAHCYKPRIQVRLGEHNIHVLEGNEQFINAAKIITHPNFNPNTLDNDIMLIKLSSPATLNSHVATVSLPRSCAAAGTECLISGWGNTCSSGSSMPSLLQCLKAPVLSDSSCKSSYPGQITGNMICVGFLEGGKDACQGDSGGPVVCNGQLQGIVSSGYGCAQKNKPGVYTKVCNYVNWIQQTIAAN,yes,>90%,83.8 area %,> 80%,0.6 area %,0.3 area %
trypsin variant SEQ ID NO: 80 (protein) IVGGYTCAANSIPYQVSLNSGSHRCGGSLINSQWVVSAAHCYKSRIQVRLGEHNIHVLEGNEQFINAAKIITHPNFNPNTLDNDIMLIKLSSPATLNSHVATVSLPTSCAAAGTECLISGWGNTSSSGSSMPSLLQCLKAPVLSDSSCKSSYPGQITGNMICVGFLEGGKDACQGDSGGPVVCNGQLQGIVSSGYGCAQKNKPGVYTKVCNYVNWIQQTIAAN,yes,>90%,90.1 area %,> 90%,0.9 area %,0.5 area %
trypsin variant SEQ ID NO: 85 (protein) IVGGYTCAANSIPYQVSLNSGSHRCGGSLINSQWVVSAAHCYKPRIQVRLGEHNIHVLEGNEQFINAAKIITHPNFNPNTLDNDIMLIKLSSPATLNSHVATVSLPTSCAAAGTECLISGWGNTCSSGSSMPSLLQCLKAPVLSDSSCKSSYPGQITGNMICVGFLEGGKDACQGDSGGPVVCNGQLQGIVSSGYGCAQKNKPGVYTKVCNYVNWIQQTIAAN,yes,>90%,85.4 area %,> 90%,1.1 area %,0.2 area %
trypsin variant SEQ ID NO: 56 (protein) IVGGYTCAANSIPYQVSLNSGSHRCGGSLINSQWVVSAAHCYKSRIQVRLGEHNINVLEGNEQFINAAKIITHPNFNGNTLDNDIMLIKLSSPATLNSRVATVSLPRSCAAAGTECLISGWGNTKSSGSSYPSLLQCLKAPVLSDSSCKSSYPGQITGNMICVGFLEGGKDACQGDSGGPVVCNGQLQGIVSSGYGCAQKNKPGVYTKVCNYVNWIQQTIAAN,yes,>90%,85.3 area %,> 90%,< 0.5 area %,2 area %
trypsin variant SEQ ID NO: 9 (protein) IVGGYTCAANSIPYQVSLNSGSHRCGGSLINSQWVVSAAHCYKSRIQVRLGEHNIDVLEGNEQFINAAKIITHPNFNGNTLDNDIMLIKLSSPATLNSYVATVSLPRSCAAAGTECLISGWGNTKSSGSSYPSLLQCLKAPVLSDSSCKSSYPGQITGNMICVGFLEGGKDACQGDSGGPVVCNGQLQGIVSSGYGCAQKNKPGVYTKVCNYVNWIQQTIAAN,yes,>90%,85.2 area %,> 90%,< 0.5 area %,3.6 area %
trypsin variant SEQ ID NO: 74 (protein) IVGGYTCAANSIPYQVSLNSGSHRCGGSLINSQWVVSAAHCYKSRIQVRLGEHNIDVLEGNEQFINAAKIITHPNFNPNTLDNDIMLIKLSSPATLNSRVATVSLPRSCAAAGTECLISGWGNTKSSGSSYPSLLQCLKAPVLSDSSCKSSYPGQITGNMICVGFLEGGKDACQGDSGGPVVCNGQLQGIVSSGYGCAQKNKPGVYTKVCNYVNWIQQTIAAN,yes,>90%,82.4 area %,> 80%,< 0.5 area %,2.1 area %
trypsin variant SEQ ID NO: 51 (protein) IVGGYTCAANSIPYQVSLNSGSHKCGGSLINSQWVVSAAHCYKSRIQVRLGEHNIDVLEGNEQFINAAKIITHPNFNGNTLDNDIMLIKLSSPATLNSRVATVSLPRSCAAAGTECLISGWGNTKSSGSSYPSLLQCLKAPVLSDSSCKSSYPGQITGNMICVGFLEGGKDACQGDSGGPVVCNGQLQGIVSSGYGCAQKNKPGVYTKVCNYVNWIQQTIAAN,yes,>70%,–,–,–,–
trypsin variant SEQ ID NO: 81 (protein) IVGGYTCAANSIPYQVSLNSGSHRCGGSLINSQWVVSAAHCYKSRIQVRLGEHNIHVLEGNEQFINAAKIITHPNFNPNTLDNDIMLIKLSSPATLNSHVATVSLPTSCAAAGTECLISGWGNTASSGSSMPSLLQCLKAPVLSDSSCKSSYPGQITGNMICVGFLEGGKDACQGDSGGPVVCNGQLQGIVSSGYGCAQKNKPGVYTKVCNYVNWIQQTIAAN,yes,>90%,89.7 area %,> 90%,1.2 area %,0.5 area %
trypsin variant SEQ ID NO: 73 (protein) IVGGYTCAANSIPYQVSLNSGSHRCGGSLINSQWVVSAAHCYKSRIQVRLGEHNIDVLEGNEQFINAAKIITHPNFNANTLDNDIMLIKLSSPATLNSRVATVSLPRSCAAAGTECLISGWGNTKSSGSSYPSLLQCLKAPVLSDSSCKSSYPGQITGNMICVGFLEGGKDACQGDSGGPVVCNGQLQGIVSSGYGCAQKNKPGVYTKVCNYVNWIQQTIAAN,yes,>90%,83 area %,> 90%,< 0.5 area %,2.2 area %
trypsin variant SEQ ID NO: 79 (protein) IVGGYTCAANSIPYQVSLNSGSHRCGGSLINSQWVVSAAHCYKPRIQVRLGEHNIHVLEGNEQFINAAKIITHPNFNPNTLDNDIMLIKLSSPATLNSHVATVSLPRSCAAAGTECLISGWGNTASSGSSMPSLLQCLKAPVLSDSSCKSSYPGQITGNMICVGFLEGGKDACQGDSGGPVVCNGQLQGIVSSGYGCAQKNKPGVYTKVCNYVNWIQQTIAAN,yes,>90%,87.8 area %,> 90%,0.7 area %,0.3 area %
trypsin variant SEQ ID NO: 57 (protein) IVGGYTCAANSIPYQVSLNSGSHRCGGSLINSQWVVSAAHCYKSRIQVRLGEHNIHVLEGNEQFINAAKIITHPNFNGNTLDNDIMLIKLSSPATLNSRVATVSLPRSCAAAGTECLISGWGNTKSSGSSYPSLLQCLKAPVLSDSSCKSSYPGQITGNMICVGFLEGGKDACQGDSGGPVVCNGQLQGIVSSGYGCAQKNKPGVYTKVCNYVNWIQQTIAAN,yes,>90%,87.5 area %,> 90%,< 0.5 area %,2.3 area %
trypsin variant SEQ ID NO: 84 (protein) IVGGYTCAANSIPYQVSLNSGSHRCGGSLINSQWVVSAAHCYKPRIQVRLGEHNIHVLEGNEQFINAAKIITHPNFNPNTLDNDIMLIKLSSPATLNSNVATVSLPTSCAAAGTECLISGWGNTSSSGSSMPSLLQCLKAPVLSDSSCKSSYPGQITGNMICVGFLEGGKDSCQGDSGGPVVCNGQLQGIVSSGYGCAQKNKPGVYTKVCNYVNWIQQTIAAN,yes,>90%,85.4 area %,> 90%,0.6 area %,1.6 area %
trypsin variant SEQ ID NO: 78 (protein) IVGGYTCAANSIPYQVSLNSGSHRCGGSLINSQWVVSAAHCYKSRIQVRLGEHNIHVLEGNEQFINAAKIITHPNFNPNTLDNDIMLIKLSSPATLNSHVATVSLPTSCAAAGTECLISGWGNTCSSGSSYPSLLQCLKAPVLSDSSCKSSYPGQITGNMICVGFLEGGKDACQGDSGGPVVCNGQLQGIVSSGYGCAQKNKPGVYTKVCNYVNWIQQTIAAN,yes,>80%,85.1 area %,> 90%,0.5 area %,1.6 area %
trypsin variant SEQ ID NO: 10 (protein) IVGGYTCAANSIPYQVSLNSGSHRCGGSLINSQWVVSAAHCYKSRIQVRLGEHNIDVLEGNEQFINAAKIITHPNFNGNTLDNDIMLIKLSSPATLNSTVATVSLPRSCAAAGTECLISGWGNTKSSGSSYPSLLQCLKAPVLSDSSCKSSYPGQITGNMICVGFLEGGKDACQGDSGGPVVCNGQLQGIVSSGYGCAQKNKPGVYTKVCNYVNWIQQTIAAN,yes,>90%,82.7 area %,> 90%,< 0.5 area %,2.6 area %
trypsin variant SEQ ID NO: 83 (protein) IVGGYTCAANSIPYQVSLNSGSHRCGGSLINSQWVVSAAHCYKPRIQVRLGEHNIHVLEGNEQFINAAKIITHPNFNPNTLDNDIMLIKLSSPATLNSNVATVSLPTSCAAAGTECLISGWGNTSSSGSSMPSLLQCLKAPVLSDSSCKSSYPGQITGNMICVGFLEGGKDACQGDSGGPVVCNGQLQGIVSSGYGCAQKNKPGVYTKVCNYVNWIQQTIAAN,yes,>90%,89 area %,> 90%,< 0.5 area %,1.2 area %
trypsin variant SEQ ID NO: 77 (protein) IVGGYTCAANSIPYQVSLNSGSHRCGGSLINSQWVVSAAHCYKPRIQVRLGEHNIHVLEGNEQFINAAKIITHPNFNGNTLDNDIMLIKLSSPATLNSHVATVSLPTSCAAAGTECLISGWGNTCSSGSSMPSLLQCLKAPVLSDSSCKSSYPGQITGNMICVGFLEGGKDACQGDSGGPVVCNGQLQGIVSSGYGCAQKNKPGVYTKVCNYVNWIQQTIAAN,yes,>90%,88.2 area %,> 90%,0.5 area %,1.6 area %
